Measurements published in article PMC2464603, “Roles of Arabidopsis WRKY3 and WRKY4 Transcription Factors in Plant Responses to Pathogens”.

Experiments:
[1] = target: WRKY4 (Arabidopsis, UniProt Q9XI90 1-514); assay: EMSA; not stated; DNA-binding assays as previously described (ref 15); details: protein: recombinant
[2] = target: WRKY3 (Arabidopsis, UniProt Q9ZQ70 1-513); assay: as above; details: protein: recombinant
WRKY3, sequence (Q9ZQ70 whole entry): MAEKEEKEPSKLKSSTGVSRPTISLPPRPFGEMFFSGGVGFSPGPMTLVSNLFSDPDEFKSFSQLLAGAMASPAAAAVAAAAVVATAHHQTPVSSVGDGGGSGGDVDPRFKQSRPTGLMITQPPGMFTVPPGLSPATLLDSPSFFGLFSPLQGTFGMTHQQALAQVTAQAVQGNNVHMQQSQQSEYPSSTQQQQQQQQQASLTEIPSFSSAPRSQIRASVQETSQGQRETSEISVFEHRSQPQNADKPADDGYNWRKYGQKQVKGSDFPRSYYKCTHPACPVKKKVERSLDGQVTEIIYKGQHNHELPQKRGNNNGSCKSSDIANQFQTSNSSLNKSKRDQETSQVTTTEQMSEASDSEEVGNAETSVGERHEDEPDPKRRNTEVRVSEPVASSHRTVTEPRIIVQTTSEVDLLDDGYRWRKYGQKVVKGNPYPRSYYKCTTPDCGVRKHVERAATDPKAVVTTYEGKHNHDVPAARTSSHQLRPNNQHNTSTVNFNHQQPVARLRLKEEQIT

WRKY4, sequence (Q9XI90 whole entry): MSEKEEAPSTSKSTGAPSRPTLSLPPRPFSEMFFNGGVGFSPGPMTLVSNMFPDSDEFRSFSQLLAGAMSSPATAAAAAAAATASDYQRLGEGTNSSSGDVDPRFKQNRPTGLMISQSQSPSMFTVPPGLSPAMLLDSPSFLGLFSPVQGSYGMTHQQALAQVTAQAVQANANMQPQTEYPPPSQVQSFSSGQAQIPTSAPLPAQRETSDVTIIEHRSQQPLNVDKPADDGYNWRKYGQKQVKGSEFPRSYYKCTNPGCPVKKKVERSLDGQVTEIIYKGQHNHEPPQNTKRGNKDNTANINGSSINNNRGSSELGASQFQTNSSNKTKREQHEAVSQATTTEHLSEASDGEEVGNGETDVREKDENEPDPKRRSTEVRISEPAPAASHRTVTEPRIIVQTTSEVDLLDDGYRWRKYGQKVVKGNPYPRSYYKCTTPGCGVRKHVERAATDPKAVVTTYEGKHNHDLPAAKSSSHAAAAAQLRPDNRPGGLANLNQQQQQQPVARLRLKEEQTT

Binder	binding result [1]	binding result [2]
Pchn0 (dsDNA) DNA 1: GGAACTTGACCTTGACCTTAGGGCTGCAGGAATTCG DNA 2: CGAATTCCTGCAGCCCTAAGGTCAAGGTCAAGTTCC	binds	binds
mPchn0 (dsDNA) DNA 1: GGAACTTGAACTTGAACTTAGGGCTGCAGGAATTCG DNA 2: CGAATTCCTGCAGCCCTAAGTTCAAGTTCAAGTTCC		no binding
